According to patent US20130266579A1:

Columns and labels:
[1] = molecular target: human epidermal growth factor receptor (EGFR) on cells and tissues (human) (UniProt P00533); assay: in vivo fluorescence imaging
[2] = molecular target: human epidermal growth factor receptor (EGFR) (human) (UniProt P00533); assay: cell-based or functional assay

fold increase of tumor DL755 signal over 7 days [1]	Substance	EC50 for Cell Growth Inhibition (CGI), Keratinocyte (HEK-N) cells [2]	EC50 for Cell Growth Inhibition (CGI), A431 cells [2]
3 fold	control Human IgG (antibody)		
	Saporin conjugated Y104D	0.0158 µg/mL	
	Saporin conjugated Y104D/Q111P	0.0225 µg/mL	0.0024 µg/mL
